Assay: label from the status in PepcDB records

MREVNEGASAYPGQRATGESIERGGGGLSVSDLLAKVMTAAAPQPTGSGTESGPGAGPTAGPSLDVDGLAVAVAATAGRYLPGGHLSPDSDFFDAGGTSVHAVELVAELERELGMEIALDDVFADARPRTLARRWLSAGGAPAAHSATPATPEPTAAGVAATGVTAIGATAAGAAVAGATAAGVAATPGLLPLSAAGTRPAPAPSGLPVPSPRTPPAVAATPPPGSGDAPYSTARREDLDQILADLALADRLPWTGAPEPLPPRRILLTGATGFLGSHMLLDLLRHSDAHVYCLVRAADEEAATARLGQALKGYELPWSSEVRRRVTVLPGDIRHPRLGLSDDLWNTLAHELDSVVGVAAAVDFLRGYPSLRQSNVLGALTLAELAATGRPKPLHHISSIAVFNEVGITAMGEDDPLARVDRLVAGYDQTKWTAEVALRRARDHGLLVTAMRPGGIGGHTRTGAYNPQDLSSGLISAFGRFRTVPAFRYLNAAPVDWVSRVAVGVICEPDAWGYDYNLTGVPNTLDDVVQDMALGGMHVRVQDWDEWRTDALARLEADPVPELAFLTRVLRSPTALKLCEATLKGPAAHDDRTAALVEALGLGPAARYDAQAQLRTFERLARDGLARLPHKDDQPYLWFSERTEGGVGPVGAPADTPCSMALTLSIASMYQLVKERRVDVSGELVCAAVHPEPLTVERGDVWIRPEEGIPEQHGMRHQLLRYRLELRDTDGGHWWLEGHKYARARRDVWRQTRALTVEIGRAGEPARLTGEVVVPADSYVRDQIDGIKVDPRLTSQEKRAAKLTWLAWFGLEVGRGLLGPFARVAADLLDLRRNPTLTERNR
protein production: failed

MKKKYFGTDGIRGKVGDFPITPDFFLRLGYAVGKVLLASDRQLAADKRPTVLIGKDTRISGYMLESALEAGFSAAGVDVLLSGPLPTPAVAYLVRALRIQAGAVISASHNPFDDNGIKFFSSAGSKLPDSMELQIEAELDQPMKTTPSIKLGRVQRLRDAAGRYIEFCKSTFPNQLDLRGLRIVVDCANGADYHIAGHVMHELGADVITTHASPDGFNINYECGATHIETLQGSILQHKADIGIAVDGDGDRVLMVSREGVLYDGDSLAYIIAKHRQQLGELQGGVAGTLMTNLAVEQAFERLGIPFARANVGDRYVSELLQQNDWYLGAENSGHIICRDKHTTGDGIISALQVLYALRDTGLTLADFMRDVPFFPQRLINVKVSGNFDFRSNPAVAACKNEAEQALGNDGRILLRASGTEPLIRVMVEGKVLQQTDYWAEKIAETIRQQAASSMTGS
protein production: failed

MKKDLISVVMSAYNSEKFISDSISSILDQTYENWELIIINDASSDNTLKIVNQFSEKDPRIKVIDNENNLGLTISLNIGINNSKGEFIARLDSDDFAEPSRLEKELDHLHAYPEAGLVGSGAHLINSSGNKIGSMNVMSQPYFVNRFLINLNPFIHSSIMVRKKALDNVGSYREKFRYSQDYDLILRLSDKYKLSNIALPLIRWRVSDSSVTMQHHTLQRIYADIAREFAIERRNSGHDSYESTEFDTLIHEMRIRNQGRYLCDHGVYDLLFNKKYKEGCSELIKGISKGGFPYNSFYRGITQVISKVNIQLEHHHHHH
protein production: failed

MQIDHGSRQPYYAQIVTGIEQDIAHGVLQSGEQLPSVREMARQHLLNPNTVSKAYKRLETQQIIETVPGKGTYVKVVDSTLFRQELREQFTQIVRLAGQRGVSIAELHGWLDQMGEK
protein production: failed

MGSSLSNLNDGTNGLAMGPGLGDIPESCVACVFMYLTPPEICNLAGLNRSFRGAASSDSVWEKKLPENYQDLLDLLPPERYHSLSKKDIFAVLSRPIPFDDDNKEVWIDRVTGRVCMAISARGMSITGIEDRRYWNWIPTEESRFHVVAYLQQIWWFEVDGTVRFHLPPGVYSLSFRIHLGRFTKRLGRRVCHFELTHGWDLKPVRFSLSTSDGQEASCEYYLDDVERNEALGKHKRGYWIEYRVGEFIVNGSEPSTEIQWSMKQIDCTHSKGGLCVDSVFINPIGDVKEHKRKAVLKEA
protein production: failed

MMNSDRNKYRKENDMGKQVRDKEVQEIMDYIMNKGEDSEERVYKLFKMNGVIYEIACNISRNQNSETTQNQIRKFYDYTIKINSKDEKKAKIKLAMMMPQIYYAIQRKVISSDSPFVKFLEDSIDKLNKTEDFENAFNRFLNVFQAIVAYSKKSRSDRNE
protein production: failed

MATISAKLVKELREKTGAGMMDCKKALTETDGDIDKAIDYLREKGIAKAAKKADRIAAEGLVHVETKGNDAVIVEINSETDFVARNEGFQELVKEIANQVLDTKAETVEALMETTLPNGKSVDERIKEAISTIGEKLSVRRFAIRTKTDNDAFGAYLHMGGRIGVLTVVEGSTDEEAARDVAMHIAAINPKYVSSEQVSEEEINHEREVLKQQALNEGKPENIVEKMVEGRLRKYLQEICAVDQDFVKNPDVTVEAFLKTKGGKLVDFVRYEVGEGMEKREENFADEVKGQMK
protein production: failed

MRRRKYPWKQADILIHRYCRRLTTGQRLAVIAVAFALFMAGCLYMLLSSLLGFGETGGGLQIEHIRPLDIKPEKDTTIHFKDYYDYGHSENQDTVRLVC
protein production: failed

MINYKKKIAALMLLATCLSGCSYDLKDLQHLKSKSSFDTVGIKILCEHKKYSEAMKQIDDYLKKHPDDKVALSEKGYVLVSQDKNEDGLLVLLKVNDKYPNYDVTLNNISWAYNNLKMYKLANKYADLALKQTPNSSEELSNKGTALFGLKNYKAAEKYYDKALEKKSTDKVAIWGKALSLYKEKSYSKSLTYFKKYVIVDSSDIQASYYMEKCYIALNDVDGAIKEFKSDIIADPKNKGNYFALGDMYRKKTDYSSALSCYDTLSEIDPEDPEIYFQKAICLVKSGDKDGACENLKLTLSYDSEYVSDIEEEPAFDALKDYDKFKEILNSK
protein production: failed

MTIFEKNVIEFVTVAAEFCAFLERAEHMKRKAFVDTSLKILPLLYLKASLLPKCETIGDEAPETYVTEEIYEILRINLAGLMGEKDDYLDVFVQDMVYSDQPIKKSVSEDLADIYQDIKDFIFVFQLGLNETMNDSLAICQENFGLLWGQKLVNTLRALHDVKYLEHHHHHH
protein production: failed

MNKTLIAAAVAGIVLLASNAQAQTVPEGYQLQQVLMMSRHNLRAPLANNGSVLEQSTPNKWPEWDVPGGQLTTKGGVLEVYMGHYMREWLAEQGMVKSGECPPPYTVYAYANSLQRTVATAQFFITGAFPGCDIPVHHQEKMGTMDPTFNPVITDDSAAFSEQAVAAMEKELSKLQLTDSYQLLEKIVNYKDSPACKEKQQCSLVDGKNTFSAKYQQEPGVSGPLKVGNSLVDAFTLQYYEGFPMDQVAWGEIKSDQQWKVLSKLKNGYQDSLFTSPEVARNVAKPLVSYIDKALVTDRTSAPKITVLVGHDSNIASLLTALDFKPYQLHDQNERTPIGGKIVFQRWHDSKANRDLMKIEYVYQSAEQLRNADALTLQAPAQRVTLELSGCPIDADGFCPMDKFDSVLNEAVK
protein production: not failed

MESITQIYRIGYGPSSSHTIGPRRAAEMFLDRNPRATSFRVTLYGSLAATGKGHLTDAAILAVLEAKAPTEIVWKPEIFQNFHPNGMLFESFDKEGKQLDDWLIYSIGGGVLANEHFNEQ
protein production: not failed

MKTTALRLYGKRDLRLETFDLPEMQEDEILATVVTDSLCLSSWKEANLGENHKKVPDDVATNPIIIGHEFCGDILAVGKKWQHKFQPGQRYVIQANLQLPDRPDCPGYSFPWVGGEATHVVIPNEVMEQDCLLAYDGETYFEGSLVEPLSCVIGAFNANYHLQEGSYNHTMGIRPQGRMLILGGTGPMGLLAIDYALHGPVNPSQLVITDTDNDKLSYARKHYPSEPQTLIHYLNAADAAFDTLMALSGGHGFDDIFVFVPNEGLVTLASSLLATDGCLNFFAGPQDKHFSAPINFYDVHYAFTHYVGTSGGNTDDMRAAVKLIEEKKVQAAKVVTHILGLNAAGETTLELPAVGGGKKLVYTGKYLPLTSLTQIQDQALAAILARHQGIWSGEAEQYLLTHAEAISHD
protein production: failed

MARLIGFKMAEVHRGRIVMQLDPDQSLENTAGLLHGAIAAALLDTAMGCAISTQQPAGQGSVTMDLKLSYLRPLSVRSGTIVAEGRVVKLGRQSSYTEGFVYDGAGKLAVHATATFAMLGAGPLEHHHHHH
protein production: failed

MNRLREALKERGITQTELSTRLGKSFNMVNLYVANKHQPSIPTLFQIAEILDMDVRDLLVSNKQQNK
protein production: failed

MNARLGVSLKILSALCATLMLACVKGLNGAIPTGEVIFFRSFVALFPLLLWLKVQGNILQRIKTKNIFGHLIRGFSGTGGMYFNYLALVYISLADATAISYAAPLFTVLMAAILLKENVHFSRWLAVIVGFCGILIMLSAKLTISNGLFSSGFALDGTALGATFALLAAACAATSNIQIRFLNGVESPGAIVFYFSLMTTLIGLFTLVFGWKMPHGWQWLLLIGCGLFGGIAQILVTLSLRYADASLLAPFDYTTLVWSMVIGYLFLDNLPEYATLMGASVVALAGIFTIWCNRRQRKGHIVRSS
protein production: failed

MILVPIDISDKEFTERIISHVESEARIDDAEVHFLTVIPSLPYYASLGMAYTAELPGMDELREGSETQLKEIAKKFSIPEDRMHFHVAEGSPKDKILALAKSLPADLVIIASHRPDITTYLLGSNAAAVVRHAECSVLVVR
protein production: not failed

MQDASAWMLALAGLCVGVTAGFFVRLARLCSFGAVEDALMGGDTRRLRIFGLALGIALLGTQALVIAGQLDPGQSNYTAPALPLISIAIGSVLFGIGMAFVGTCGFGSLVRLGGGDLRSFVVILVLGGAAYATLRGMFSGFRITVLERFAITMPEGVNTDLAALTQHLSGIDLRAVIAALGGGLLCLIALGDKRLRRTPRLLAAGVALGLLTVVGWLATTKLADPFAGPVHPQSLTFVSTVGKAVYAGLLNVANFADFGVGTVFGVIAGAFIAAWHTDELRWEAFDDDHEMRRHVAGAALMGFGGILTGGCTIGQGITAGSVMALSWPIAIVGMMFGARIGIAVLVDGSPRELIRRRFDAWRELLQRRRAPALTAANRPNHRPAAPSDAPRPTAPHSLAE
protein production: failed

MLIWWRGKFRRADEISLDFSLFEKSLQGAVYETLRTYSRAPFAAYKHYTRLKRSADFFNLPLSLSFDEFTKVLKAGADEFKQEVRIKVYLFPDSGEVLFVFSPLNIPDLETGVEVKISNVRRIPDLSTPPALKITGRTDIVLARREIVDCYDVILLGLNGQVCEGSFSNVFLVKEGKLITPSLDSGILDGITRENVIKLAKSLEIPVEERVVWVWELFEADEMFLTHTSAGVVPVRRLNEHSFFEEEPGPVTATLMENFEPFVLNLEENWVGI
protein production: not failed

MQDDVLAKELADKTSKADIDTDAQTVTRLIADEIDTAKQAAESDITQRSRFIETLRQYAGGGSAMAALITRLGYSKADILHLAELWAQERDPELNFIVGSLYDSGFVEVDDKEARSLQWFRKAAELGQADAQNILGYFYLNGKRGIKRDLQKGGQWYELAAAQGNVDALINLGEIYYSGTQVPLDYARAFEFFERAAKMGKSRALNYLAWMYTNGQFVDTDCRKAAELFAQGRTSFADDPHFQVTCEKDRQARAEAVAMREKNLPKLTFNRDRVFGASQGSGYACELEFVVKTDRVSSIENLRVSLALKNKAGAMSQQVIAFEPFGLNTQNRNLQGYKSDTLRESTLQPIYQPEFCDVDSYSVTAVTGIVNGKEMDILKAGIFL
protein production: failed

MKTKGWGALAVLPLALALAGNVAAEEVKGKVKTVSVKAGQISLTVESKGVMLFRVTDGTTFANAASIREIHADDLLQVDYRVDGFDNVAKAVAKVVAKLPEGVTAMDTRELEALVAKGTEEGGYLLIDSRPAGKYNEAHIPTAVSIPFAELEKNPALLTASKDRLLVFYCGGVTUVLSPKSAGLAKKSGYEKVRVYLDGEPEWKKAELPLESSLAFVEKGNIVLIDLRSPEKVAAGHIPGAVGIPAADLAAAQAKFPAYRGAHLVFYSDSAEDLSQALELARDWNYKNATIFPGGIGAWQKAGKHLKTGAAAATVTYVKKLAPGEVGTEDFQAALKDGRTVVIDARAPGEFEKGHFKGAVNIPAEEAAKRLAEIPADRPVLVHCSTGTRAEMVYDLVKDKGYNLKYLKAGVEFAADGSYTISE
protein production: failed
